Ends that are not written are not given here.
Target: recombinant Drp1 (GST-Drp1) (human, UniProt O00429 1-736)
Experiment: cell-based or functional assay

Sequence of recombinant Drp1 (GST-Drp1) (O00429 other isoform, or with tags, fused parts or gaps): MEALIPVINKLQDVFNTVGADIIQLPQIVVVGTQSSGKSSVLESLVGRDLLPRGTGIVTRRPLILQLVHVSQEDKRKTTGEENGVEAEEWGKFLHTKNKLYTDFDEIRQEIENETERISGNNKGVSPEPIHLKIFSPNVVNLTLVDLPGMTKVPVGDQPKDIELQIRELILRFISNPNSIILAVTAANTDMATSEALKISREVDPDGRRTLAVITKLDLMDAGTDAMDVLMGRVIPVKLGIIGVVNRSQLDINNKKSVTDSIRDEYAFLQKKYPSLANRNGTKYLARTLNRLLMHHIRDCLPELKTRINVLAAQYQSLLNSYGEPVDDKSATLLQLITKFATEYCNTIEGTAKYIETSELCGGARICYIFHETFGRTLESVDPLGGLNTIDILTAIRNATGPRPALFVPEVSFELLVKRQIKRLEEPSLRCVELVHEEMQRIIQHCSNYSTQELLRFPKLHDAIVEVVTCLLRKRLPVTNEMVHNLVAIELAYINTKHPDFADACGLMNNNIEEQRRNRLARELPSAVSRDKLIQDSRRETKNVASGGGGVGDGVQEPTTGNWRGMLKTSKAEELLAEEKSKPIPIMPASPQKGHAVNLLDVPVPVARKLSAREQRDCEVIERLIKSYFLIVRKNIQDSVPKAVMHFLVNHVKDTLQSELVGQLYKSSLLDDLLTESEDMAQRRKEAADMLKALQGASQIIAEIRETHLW

B1: P109 (peptide)
peptide: RRRQRRKKRGYGGKLSAREQRD-NH2
  GTPase activity of recombinant Drp1 (in vitro GTPase assay kit): 40 % inhibition
